Results on 2 molecules are retold here after patent publication US20200024358A1 (published 2020).

Positions count from the first letter of the chain named.

In assay [1] the target is T1, extracellular domain of human PD-L1 (Example 8) (human, UniProt Q9NZQ7 19-238).
T1 construct: extracellular domain; also called PD-L1 antigen; immobilized PD-L1
The assay can be described thus: Kinetic Exclusion Assay (KinExA 3200), 1:1 model. Background: Kinetic exclusion samples the free partner from a solution-phase mixture.
Procedure: (§1) Studies were designed to measure the free antibody in samples with a fixed antibody concentration and different concentrations of antigen PD-L1 at equilibrium, reaction mixtures were performed in PBS (pH 7.4) with 1 mg/ml BSA. […] The equilibrium titration and kinetics data were fit to a 1:1 reversible binding model using KinExA Pro software (version 4.2.10; Sapidyne Instruments) to determine the Kd.

Assay [2] addresses T2, Human BCMA labelled with a fluorescent dye (human, UniProt Q02223 1-54, limits assumed, labelled with a fluorescent dye (dye and site not stated)).
T2 construct: also called fluorescently labeled BCMA
T2 sequence (looked up): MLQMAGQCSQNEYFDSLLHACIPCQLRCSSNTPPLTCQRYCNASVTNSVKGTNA
The assay can be described thus: MicroScale Thermophoresis, labelled BCMA at 2 nM. On the technique in general: MST reads how a fluorescent partner responds to local heating, with and without ligand.

In assay [3] the target is T1, extracellular domain of human PD-L1 …. The assay is described as follows: competition ELISA in solution (Friguet), Scatchard plot. In general terms: ELISA stands for enzyme-linked immunosorbent assay.
Procedure: First, mixtures of the trispecific antibody (Ab) at a fixed concentration and the PD-L1 antigen (Ag) at varying concentrations were incubated for sufficient time to reach equilibrium. Then the concentration of trispecific antibody, which remained unsaturated at equilibrium (not associated with PD-L1 antigen), was measured by a classical indirect ELISA using PD-L1 coated plates. […] The Kd was calculated from a Scatchard plot using the following equation:
Assay [4] has as its target T3, recombinant human CD3 epsilon His-tag protein (Novoprotein, Cat. No. C578) (human, UniProt P07766 23-126).
T3 construct: Bought protein; not shown: His-tag
The assay is described as follows: dual-binding ELISA: BCMA Fc coated, then CD3 epsilon His, anti-His detection.

The target of assay [5] is T1, extracellular domain of human PD-L1 …. The assay can be described thus: Kinetic Exclusion Assay (KinExA 3200).
Procedure: as §1

T1 sequence (Q9NZQ7 19-238): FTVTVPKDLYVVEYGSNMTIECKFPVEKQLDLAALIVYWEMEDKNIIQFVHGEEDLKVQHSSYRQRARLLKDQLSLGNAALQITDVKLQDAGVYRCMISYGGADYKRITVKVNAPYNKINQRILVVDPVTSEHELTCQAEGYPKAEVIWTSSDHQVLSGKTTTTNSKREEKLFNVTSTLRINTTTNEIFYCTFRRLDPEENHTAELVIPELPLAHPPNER
T3 sequence (P07766 23-126): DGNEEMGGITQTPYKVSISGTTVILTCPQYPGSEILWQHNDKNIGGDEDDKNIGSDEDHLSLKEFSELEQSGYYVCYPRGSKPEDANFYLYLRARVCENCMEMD

B1: CDR1-007 (other)
heavy: QIQLVQSGPELKKPGETVKISCKASGYTFTDYSINWVKRAPGKGLKWMGWINTETREPAYAYDFRGRFAFSLETSASTAYLQINNLKYEDTATYFCALDYSYAMDYWGQGTSVTVSSASTKGPSVFPLAPSSKSTSGGTAALGCLVKDYFPEPVTVSWNSGALTSGVHTFPAVLQSSGLYSLSSVVTVPSSSLGTQTYICNVNHKPSNTKVDKRVEPKSCGGGGSEIVMTQSPSTLSASVGDRVIITCQASEDIYSLLAWYQQKPGKAPKLLIYDASDLASGVPSRFSGSGSGAEFTLTISSLQPDDSATYYCQGNYGSSSSSSYGAVFGQGTKLTVLGGGGGSGGGGSGGGGSGGGGSEVQLVESGGGSVQPGGSLRLSCTVSGIDLSSYTMGWVRQAPGKGLEWVGIISSGGRTYYASWAKGRFTISRDTSKNTVYLQMNSLRAEDTATYYCARGRYTGYPYYFALWGQGTTVTVSS
light: DIVLTQSPASLAMSLGKRATISCRASESVSVIGAHLIHWYQQKPGQPPKLLIYLASNLETGVPARFSGSGSGTDFTLTIDPVEEDDVAIYSCLQSRIFPRTFGGGTKLEIKRTVAAPSVFIFPPSDEQLKSGTASVVCLLNNFYPREAKVQWKVDNALQSGNSQESVTEQDSKDSTYSLSSTLTLSKADYEKHKVYACEVTHQGLSSPVTKSFNRGECGGGGSAVVTQEPSLTVSPGGTVTLTCGSSTGAVTTSNYANWVQQKPGKSPRGLIGGTNKRAPGVPARFSGSLLGGKAALTISGAQPEDEADYYCALWYSNHWVFGGGTKLTVLGGGGGSGGGGSGGGGSGGGGSEVQLVESGGGSVQPGGSLRLSCAASGFTFSTYAMNWVRQAPGKGLEWVGRIRSKANNYATYYADSVKGRFTISRDDSKNTLYLQMNSLRAEDTATYYCVRHGNFGDSYVSWFAYWGQGTTVTVSS
notes: also called CDR-007; trispecific CDR1-007
Turning to B1, the equilibrium dissociation constant (Kd) (as a rule, the equilibrium constant for the complex coming apart) in assay [1] was 0.0217 to 0.042 nM; in assay [2] it was 8.5 to 9.9 nM; in assay [3], 0.11 nM. Also, the binding result in assay [4] is recorded as “binds”.

B2: CDR1-017 (other)
heavy: B1 heavy with R458A
light: B1 light
notes: also called trispecific CDR1-017
B2: in assay [5], the “fold difference in affinity against CDR1-007 (WT)” value was roughly 1000 fold. Also, in assay [3], binding was put at a Kd of 26 nM.
